Tests used:
Assay in all cases: cell-based or functional assay
[1] = target: T1, F protein of human metapneumovirus strain JPS05-21 (type B2), on infectious virus (human metapneumovirus, strain JPS05-21 …)
[2] = target: T2, F protein of human metapneumovirus strain JPS03-180 (type A1), on infectious virus (human metapneumovirus, strain JPS03-180 …)
[3] = target: T3, F protein of human metapneumovirus strain JPS03-178 (type A2), on infectious virus (human metapneumovirus, strain JPS03-178 …)
[4] = target: T4, F protein of human metapneumovirus strain JPS02-76 (type B1), on infectious virus (human metapneumovirus, strain JPS02-76 …, UniProt Q6WB98 19-539)
[5] = target: T1, F protein of human metapneumovirus …; remark: listed apart in the source
[6] = target: T2, F protein of human metapneumovirus …; remark: listed apart in the source
[7] = target: T3, F protein of human metapneumovirus …; remark: listed apart in the source
[8] = target: T1, F protein of human metapneumovirus …; remark: listed apart in the source
[9] = target: T2, F protein of human metapneumovirus …; remark: listed apart in the source
[10] = target: T4, F protein of human metapneumovirus …; remark: listed apart in the source
[11] = target: T4, F protein of human metapneumovirus …; remark: listed apart in the source
[12] = target: T1, F protein of human metapneumovirus …; remark: listed apart in the source
[13] = target: T2, F protein of human metapneumovirus …; remark: listed apart in the source
[14] = target: T3, F protein of human metapneumovirus …; remark: listed apart in the source
[15] = target: T4, F protein of human metapneumovirus …; remark: listed apart in the source

| Binder | IC90, neutralizing activity (hMPV infection of LLC-MK2 cells; GraphPad Prism 6) [1] [mg/L] | IC90, neutralizing activity (hMPV infection of LLC-MK2 cells; GraphPad Prism 6) [2] [mg/L] | IC90, neutralizing activity (hMPV infection of LLC-MK2 cells; GraphPad Prism 6) [3] [mg/L] | IC90, neutralizing activity (hMPV infection of LLC-MK2 cells; GraphPad Prism 6) [4] [mg/L] | IC50, neutralizing activity (hMPV infection of LLC-MK2 cells; GraphPad Prism 6) [5] [mg/L] | IC50, neutralizing activity (hMPV infection of LLC-MK2 cells; GraphPad Prism 6) [6] [mg/L] | IC50, neutralizing activity (hMPV infection of LLC-MK2 cells; GraphPad Prism 6) [7] [mg/L] | IC50, neutralizing activity (hMPV infection of LLC-MK2 cells) [8] [mg/L] | IC50, neutralizing activity (hMPV infection of LLC-MK2 cells) [9] [mg/L] | IC50, neutralizing activity (hMPV infection of LLC-MK2 cells) [10] [mg/L] | IC50, cell-to-cell spread inhibitory activity (LLC-MK2 cells stably expressing TMPRSS2) [11] [mg/L] | IC90, cell-to-cell spread inhibitory activity (LLC-MK2 cells stably expressing TMPRSS2) [11] [mg/L] | IC60, neutralizing activity (hMPV infection of LLC-MK2 cells; GraphPad Prism 6) [12] [mg/L] | IC60, neutralizing activity (hMPV infection of LLC-MK2 cells; GraphPad Prism 6) [13] [mg/L] | IC60, neutralizing activity (hMPV infection of LLC-MK2 cells; GraphPad Prism 6) [14] [mg/L] | IC60, neutralizing activity (hMPV infection of LLC-MK2 cells; GraphPad Prism 6) [15] [mg/L] |
| --- | --- | --- | --- | --- | --- | --- | --- | --- | --- | --- | --- | --- | --- | --- | --- | --- |
| EV046115b (antibody, human IgG1, lambda, V domains shown) VH: QVQLVQSGAEVKKPGASVKVSCKASGYTFSVYGISWVRQAPGHGLEWMGWISAYNGDRGYAQKVQGRITMTTDTSASTAYMELRSLTSDDTAVYYCATTSSGVPGIYWGQGSLVTVSS VL: not shown | 0.345 | 1.03 | 5.75 | 2.3 | 0.108 | 0.322 | 2.28 | 0.099 | 0.29 | 0.27 | 0.135 | 0.617 | 0.133 | 0.4 | 2.71 | 0.376 |
| EV046130 (antibody, human IgG1, lambda, V domains shown) VH: QVQLVESGGGVAQPGRSLRLSCAASGFTLSNYGMHWVRQAPGKGLEWVAVIWYDGRNKYYADSVKGRFTISRDDFKNTLDLQMNSLRAEDTAVYYCARDQHAGITMIEDWGQGTLVTVSS VL: QSALTQPPSASGSPGQSVTISCTGTSSDVGYFKYVSWYQQHPGKAPKLLIYEVSKRPSGVPDRFSGSRSGNTASLTVSGLQADDEADYYCGSYAGNNNIIFGGGTKLTVLG | 0.358 | 0.486 | 2.3 | 0.714 | 0.105 | 0.22 | 1.95 | 0.089 | 0.21 | 0.23 | 0.0349 | 0.147 | 0.132 | 0.254 | 2.01 | 0.354 |
| EV046124 (antibody, human IgG1, lambda, V domains shown) VH: QVQLVQSGTELKKPGASVKVSCKASGYTFTDYSMHWLRQAPGESLEWMGWVNGGPLDTKYSPTFQDRVSFSRDVFATTAYMDLSSLGPEDTAVYYCARGWGITAYRGDAFDLWGQGTMVIVSS VL: SFVLTQPPSVSVAPGKSARITCGASNIESKSVHWYQQKPGQAPVVVVYDDDDRPSGIPERFSGSNSGNTATLIINRVEVGDEADYYCQVWDSTSDMYVFGAGTKVTVLG | 0.677 | 0.365 | 0.188 | 0.952 | 0.255 | 0.0767 | 0.0407 | 0.24 | 0.07 | 0.29 | 0.0482 | 0.26 | 0.305 | 0.102 | 0.0539 | 0.423 |

Reference: US20150322137A1 (EVEC, published 2015)
